Measurements published in patent publication US20100323906.

Test system: XhoI
Assay: cleavage_in_vitro
Conditions: 5'-dithiol on upper strand, tethered to 20 nm Au nanoparticle; rate constant at 3.5 nM enzyme (1.5e-3 s-1 at 350 pM); Mg2+ required, inhibited by 10 mM EDTA

“AAAGGATCCAAGCTTGAATTCCTCGAGAGATCTGTCGACGATATCGGTACCAAA (double strand) [54-bp ruler dsDNA]” showed an activity of 0.0058 s⁻¹.
